Test results published in the nanobody polyreactivity screen of Harvey et al. (2022).

assay: yeast display, Sf9 membrane polyspecificity reagent, FACS + sequencing; frameworks hold sequencing errors
Summary of the method: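 Galactose-induced (36–48 hours) yeast carrying a synthetic nanobody display library were exposed to 10% biotinylated, detergent-solubilized Sf9 membrane reagent at 4 °C for 1 hour. FACS followed streptavidin microbead enrichment, using low and high (top ~1%) gates for expression (anti-HA) and reagent binding (streptavidin). Colony PCR, MiSeq 2 × 250 sequencing and CDR-length filtering followed. Labels for polyreactivity reflect the gate of origin.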

Row | Sequence | polyreactivity (PSR sort gate)
1 | QDQLVESGGGLVQAGGSLRLSCAASGRTFYYSAMGWSRQAPGKERELVATMSRGITNYADSVKGRFTISRDNAKNTVYLQMNSLKPEDTAVYYCAARDGWRSHFRGDYWGQGTQVTVSS | high polyreactivity
2 | QDQLVESGGGLVQAGGSLRLSCAASGSICSEYAMGWYRQAPGKERELVAAISRSGGTTYYADSVKGRFTISRDNAKNTVFLQMNSLKPEDTAVYYCAARYFRGSYPMGYWGQGTQVTVSS | high polyreactivity
3 | QDQLVESGGGLVQAGGSLRLSCAASGSIFAYYVMGWYRQAPGKERELVAAISKSGGSTYYADSVQGRFTISRDNAKNTVYVQRNSLKPEDPAVYYCAAPQRYPRFYYWGQGTQVTVSS | high polyreactivity
4 | QDQLVESGGGLVQAGGSLRLSCAASGSIFFINAMGWYRQAPGKERELVAAITYSGGSTYYADSVKGRFTISRDNAKYTVYLQMNSLKPEDTAVYYCAADQYSFLPWIAWLLDDYWGQGTQVTVSS | low polyreactivity
5 | QDQLVESGGGLVQAGGSLRLSCAASGSIFKRYAMGWYRQAPGKERELVAAISYSGGSTYYADSVKGRFTISRDNAKNTVYLQMNSLKPEDTAVYYCAAATYRQQWHYYWGQGTQVTVSS | high polyreactivity
6 | QDQLVESGGGLVQAGGSLRLSCAASGSIFLIYAMGGYRQAPGKERELVAAITWGGGSTYYADSVKGRFTISRDNAKNTVYLQMTSLKPVDTAVYYCAAYSYSSSFGYRYDYWGQGTQVTVSS | high polyreactivity
7 | QDQLVESGGGLVQAGGSLRLSCAASGSIFQSNAMGWYRQAPGKERELVAAITSVGRTNYADSVKGRFTIARDNAKNTVYLQMNSLKPEDTAVYYCAADLRGDNRYYYWGQGTQVTVSS | low polyreactivity
8 | QDQLVESGGGLVQAGGSLRLSCAASGSIFQSYAMGWYRQAPGKERELVAANDRSGTSTYYADSVKGRFTISRDNAKNTVYLQLNSLKPEDTAVYYCAAVSSRGRFGYTVQIEYDYWGQGTQVTVSS | low polyreactivity
9 | QDQLVESGGGLVQAGGSLRLSCAASGSIFRRNSIGWYRQAPGKERELVAAIRWSSGSTYYADSVKGRFTISRDNAKNTVYLQMNSLKPEDTAVYYCAAAKRAYSYVLHAFYYWGQGTQVTVSS | high polyreactivity
10 | QDQLVESGGGLVQAGGSLRLSCAASGSIFSYTMGCYRQAPAKQRELVAAITSGGITYYADSVKGRFSISRDNAKNTVYLQMNSLKPEDTAVYYCADGWSSYRFGYWGQGTQVTVSS | low polyreactivity
11 | QDQLVESGGGLVQAGGSLRLSCAASGSIFVIYAMGWYRPAPGKERQLVAAITTIGGRTYYADSVKGRFTISRDHAKNTVYLQMNSLKPEDTAVYYCAADIRSNRLYDGGYWGQGTQVTVSS | low polyreactivity
12 | QDQLVESGGGLVQAGGSLRLSCAASGSILRAYAMGWYRQAPGKERELVADIDWSAGITHYADSVKGRFTISRDNAMNPVYLQMNSLKPEDTAVYYCSARYYWYDYIVYYGDYWGQGTLVTVSS | high polyreactivity
13 | QDQLVESGGGLVQAGGSLRLSCAASGSISYYAMGWYRQAPGKERELVAAISSSGGSTYYADSVKGRFTISRDNAKNTVYLQMNSLKPEDTAVYYCAARYYGFPSKYDYWGQGTQVTVSS | high polyreactivity
14 | QDQLVESGGGLVQAGGSLRLSCAASGSITAPYAMGWYRQAPGKERELVAAISYSGGSTNYADSVKGRFTISRDNAKNTVYLQMNSRKPEATAVYYCAARGYSGYRTSPLARYDYWGKGTQVTVSS | high polyreactivity
15 | QDQLVESGGGLVQAGGSLRLSCAASGSSFLVYAMGWYRQATGKEREFVAAIRGGGSTNYADSVKGRFTISRDNAMNTVYLQMNSLKPEDTAVYYCAAYLLYTPSMDYWGQGTQVTVSS | low polyreactivity
16 | QDQLVESGGGLVQAGGSLRLSCAASGSTFAYYAMGWYRQAPGKERELVAAITIDGRTSYADSVKGRFTISRDNAKNTVYLQMISLNQVDTAVYYCARGYFPYGYPWRWGYDRFDYWGQGTQVTVSS | low polyreactivity
17 | QDQLVESGGGLVQAGGSLRLSCAASGSTFGYYAMGWYRQAPRKERELVAAISWRGGSTSYADSVKGRFTISRDNAKNTVYLQMNSLKPEDTAVYYCAAPRGTLTSWAGNYWGQGTQVTVSS | high polyreactivity
18 | QDQLVESGGGLVQAGGSLRLSCAASGSTFKRYAMGWYSQAPGKVRELVAAISRRGGSTYYADSVKGRFTISRDNAKNTVYLQMNSLKPEDTAVYYCAARIASHHYYYWGQGTQVTVSS | high polyreactivity
19 | QDQLVESGGGLVQAGGSLRLSCAASGSTFQENAMGWYRQAPGKEREFVAAISGSGGSTYYADSVKGRFTISRDNAKNSVYLQMNSLKPEDTAVYYCAAYVTGYVNTVGSGWLVWGVDFWGQGTQVTVSS | low polyreactivity
20 | QDQLVESGGGLVQAGGSLRLSCAASGSTFRRYAIGWYRQAPGKERELVAAITSGGRTNYADSVKGRFTISRDNAKNTVYLQMNSLKPEDTAVYYCNAKAYKLGQSYWGYDYWGQGTQVTVSS | high polyreactivity
21 | QDQLVESGGGLVQAGGSLRLSCAASGSTFTGYTMGWYRQAPGKERELVAAITYRGGSTYYADSVKGRFTISRDNAKNTVYLQMNSLKPEDTAVYYCAAVPEYYEYTPYDYWGQGTQVTVSS | low polyreactivity
22 | QDQLVESGGGLVQAGGSLRLSCAASRITIYRYVMGWYRQAPGKERELVAAITSAGSTNYADSVKGRFTISRDHAKTTVYLQMNSLKPEDTAVYYCNADYKGYVRPYVRIRYGYWGQGTQVTVSS | low polyreactivity

Row | Sequence | polyreactivity (PSR sort gate)
23 | QDQLVESGGGLVQAGGSLRLSCAASVITFVRNAKGWYRQAPGKERELVAAMSGRGGITYYADSVKGRFTISRDNAKNTVYLQMNSLKPEDTAVYYCAASSAGSSYNYWGQGTQVTVSS | high polyreactivity
24 | QDQLVESGGGLVQAGGSLRLSCAASVSTFRVYAMGWYRQAPGKERELVAAISSSGGITYYADSVKGRFTLSRDNAKNTVYLQMNSLKPEATAVYYCAKGTVIHVLYDYWGEGTQVTVSS | low polyreactivity
25 | QDQLVESGGGLVQAGGSLRLSCAATASIFVTYAMGWYRQAPGQERELVAAINYSGGSTYYADSVKGRFTISRDNAKNTFYLQMNSLKPEDTAVNYCAADERVDQGWIRMDYWGQGTQVTVSS | low polyreactivity
26 | QDQLVESGGGLVQAGGSLRLSCAATGFIIGWNTMGWYRPAPRKEREVVAAISSGGGSTYYADSVKGRFTISRDNAKNNVYLQMNSLKPEDTAVFYCNAVSFKHVYHTDTYGVNEFVYWGEGTQVTVSS | high polyreactivity
27 | QDQLVESGGGLVQAGGSLRLSCAATGFTFYSYAMGWYRQAPGKERELVAGISRSGGSTYYADSVKGRFTISRDNGKNTVYLQMKSLKPVDTAVYYCNVGLRKKIQNSKYDYWGQGTQVTVSS | high polyreactivity
28 | QDQLVESGGGLVQAGGSLRLSCAATGSTFPSNAMGWYRQAPGKEREFVATIRFSGGSTYYADSVKGRFTISRVNAKNTVDLQMNSLKPEDTAVYYCAARFYSSAYWYDYWGQGTQVTVSS | high polyreactivity
29 | QDQLVESGGGLVQAGGSLRLSCAATGSTYYGYVMGWYRKAPGKETELVAAINLRGDRTYYADSVKGRFTISRDNAKNTVYLQMNSLKPEESSVYYCAARVMFYNSIKRYSWGQGTQVTGSS | high polyreactivity
30 | QDQLVESGGGLVQAGGSLRLSCAAYGSTSYTNAMGWYRQAPGKERELVAGITRSGDSTYYADSVKGRFTISRDTAKNTVYLQMKSLKPEDTAVYYCAADIGDYWLGYYTGYYYLGQGTQVTVSS | high polyreactivity
31 | QDQLVESGGGLVQAGGSLRLSCADSGITFSVYAMGWYRQAPGKERELVAAISWNGGRTYYADSVKGRFTISRDNAKNTVYLQMNSLKPEDTAVYYCAAQPWIFSSRLVWTRGYGYWGQGTQVTVSS | high polyreactivity
32 | QDQLVESGGGLVQAGGSLRLSCADSGSNFKYNAMGWYRPAPGKERELVAAISTRGSTTNYADSVKGRFTISRDNAKNTVYLQMNSLKPEDTAVYDCNKYANRRDRTRGADYDYWGQGTQVTVSS | high polyreactivity
33 | QDQLVESGGGLVQAGGSLRLSCASSGSIFSYNAMGWYRQAPGKEMELVAAISRGGSTYYADSVKGRFTISRDNAKNTVYLQMNSLKPDDTAVYYCAAYVYQLSYPAFEEGYWGQGTQVTVSS | low polyreactivity
34 | QDQLVESGGGLVQAGGSLRLSCASSGSTFYYKAMGWSRQEPGKERELVARISRSGGSTYADSVKGRFTISRDNAKYTVYLQMNSLKPEDTAVYYCNADAYGTPEFTSYAVRYDYWGQGTQVTVSS | low polyreactivity
35 | QDQLVESGGGLVQAGGSLRLSCASYGSTFGANAMGWYRQAHGKARELVATISSGGRTYYADSVKGRFTISRDNAKITVYLQMNSLKPEDTAVYYCNAGADYTYVYISVYVLYDYLGQGTQVTVSS | low polyreactivity
36 | QDQLVESGGGLVQAGGSLRLSCDASGSIFKSYAMGWFRQAPGKERELVASITYGGGRTYYADSVKGRFTISRDNAKNTVYLQMNSLKPEDTAVYYCATRLFGRSGMYYLRYDYWGQGTQVTVSS | high polyreactivity
37 | QDQLVESGGGLVQAGGSLRLSCDASGSIFSPYAMGWYRQAPGKEREFVAAITYSGGRTYYADSVKGRFTISRDNPKNTVYFQMNSLKPEDTAVYYCAATYSSYDHYWFVYWGQATQVTVSS | low polyreactivity
38 | QDQLVESGGGLVQAGGSLRLSFAASGRTFDRNTMGWYRQAPGKERELVAAISSSGGSTYYADSVKGRFTISRDNAKNTVYLEMNSLIPEDTAVYYCAVLSRQYFRYGYDYCGQGTQVTVSS | high polyreactivity
39 | QDQLVESGGGLVQAGGSLRLSGAASGRTFLGYAMGCYRQAPGKERALVAAITWRGGITYYADSVKGRFTISRDNAKNTVYLQMNSLKPEDTAVYYCAARKVGNRYTYYWGQGTQVTVSS | high polyreactivity
40 | QDQLVESGGGLVQAGGSLRLSSAASGSTFDSNAMAWYRQAPGKERELVAAISSSGGRTSYADSVKGRFTISRDNAKNTVYLQMNSLKPEDTAVYYCADRFKSVDYVQYYYWGQGTQVTVSS | low polyreactivity
41 | QDQLVESGGGLVQAGGSLRLTCAASGRTFTHYAMGWYRQAPVKERELVAAISRSGGTTYYADSVKGRFTISLDNAKNTVYLQMNSRKPEDTAVYYCAARWWYRYNYDYWGQGTHVTVSS | high polyreactivity
42 | QDQLVESGGGLVQAGGSLRLTCAASGSIFGWYAMGWYRQAPGKEMELFAAITNSGGSTYYADSVKGRFTISRDNAKKTVYIQMNSLKPEETAVYYCAAESWIRRWYGGGKKYDYWGQGTQVTVSS | high polyreactivity
43 | QDQLVESGGGLVQAGGSLRLTCAASGSTFTTNVMGWYRQAPGKERDLVAAISWSSGSTYYADSVKGRFTISRDNAKNTVYLQMKSLKPEDTAVYYCAARLVIFYPYSRYYYWGQGTHVTVSS | high polyreactivity
